The results in this text go back to patent publication US7531516B2, “Peptidic compounds selectively binding to P-selectin” (Astellas Pharma Europe B.V., priority 2001, dated 2009).

Assay [1] relates to Human platelets. Description: Inhibition of platelet aggregation. The note with it: human platelets activated by ADV. Format: cell-based. The method, then: Human platelets were activated by ADV, and the extent of platelet aggregation was measured in the presence or absence of EWVDV (SEQ ID No: 19)-containing peptides.
Assay [2] concerns human P-selectin-IgG. As to the kind of experiment: Binding of [3H]-cholesterol labeled sulfatide liposomes to human P-selectin-IgG. The note with it: liposomes carrying 22% of sulfatides, 2 hours at 4° C. As for the experimental part: Liposomes were prepared by sonication from egg yolk phosphatidylcholine, cholesterol, and sulfatides, all dissolved in chloroform/methanol (1:1, v/v), at weight ratios of 4:0.8:1.33. A tracer amount of [^3H]-cholesterol (1.3×10^8 dpm) was added, and the mixture was dried under a stream of nitrogen. The resulting lipid layer was vortexed in PBS and subsequently sonicated, resulting in liposomes with mean particle diameters of 59-62 nm.
Fc-specific goat anti-human IgG in coating buffer (50 mM NaHCO3, pH 9.6) was incubated in a high binding 96 well plate. The next day, wells were washed with assay buffer (20 mM HEPES, 150 mM NaCl, 1 mM CaCl2, pH 7.4) and incubated with blocking buffer (3% BSA in assay buffer). After washing, wells were incubated with human P-selectin-IgG, washed, and subsequently incubated with the [^3H]-cholesterol labeled liposomes in the presence or absence of the compounds below and antibodies for 2 hours at 4° C. After removal of unbound liposomes, bound liposomes were collected and counted using a scintillation counter.

The target in assay [3] is T1, human p-selectin (Homo sapiens, UniProt P16109).
T1 sequence (P16109 42-830): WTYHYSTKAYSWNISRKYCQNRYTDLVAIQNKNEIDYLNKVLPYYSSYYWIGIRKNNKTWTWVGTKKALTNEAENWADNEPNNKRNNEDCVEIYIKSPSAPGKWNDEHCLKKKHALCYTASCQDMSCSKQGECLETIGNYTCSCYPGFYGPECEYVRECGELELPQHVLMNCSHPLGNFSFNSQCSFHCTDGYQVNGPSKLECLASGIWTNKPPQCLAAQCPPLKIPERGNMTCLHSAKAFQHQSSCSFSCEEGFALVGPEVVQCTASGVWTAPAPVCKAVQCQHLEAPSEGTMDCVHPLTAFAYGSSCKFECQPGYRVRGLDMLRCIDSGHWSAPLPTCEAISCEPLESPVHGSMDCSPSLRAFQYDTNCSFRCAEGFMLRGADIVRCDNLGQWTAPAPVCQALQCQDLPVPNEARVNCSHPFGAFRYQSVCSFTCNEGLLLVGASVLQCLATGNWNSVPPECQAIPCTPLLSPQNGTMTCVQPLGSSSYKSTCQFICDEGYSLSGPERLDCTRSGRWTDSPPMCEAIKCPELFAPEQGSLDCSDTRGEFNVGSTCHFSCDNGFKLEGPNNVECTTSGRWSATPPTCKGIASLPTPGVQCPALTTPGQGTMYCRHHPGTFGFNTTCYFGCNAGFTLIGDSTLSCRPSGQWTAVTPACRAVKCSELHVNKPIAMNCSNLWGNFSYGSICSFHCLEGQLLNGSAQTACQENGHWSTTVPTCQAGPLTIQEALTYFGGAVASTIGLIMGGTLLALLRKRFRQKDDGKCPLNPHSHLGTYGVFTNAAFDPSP
As to the kind of experiment: Competition ELISA: displacement of TM11-strepPO complex from coated chimeric human P-selectin. The note with it: competition with 2.5 nM TM11-strepPO, 1 hour at 4° C.; linear compounds in the presence of DTT; read-out: Affinity (affinity constant). Format: binding. The method, then: The affinity of the compounds to P-selectin was investigated by using an adapted ELISA method. Streptavidin-horseradishperoxidase (strepPO) was incubated with TM11-biotin in a 1 to 4 molar ratio for 2 hours at RT, hereby forming a tetrameric peptide strepPO-complex. For competition studies, microtiter wells were coated with chimeric human p-selectin as described for the isolation of p-selectin binding phage. Wells were then incubated with 2.5 nM TM11-strepPO complex in assay buffer for 1 hour at 4° C., in the presence of titered amounts of peptides to compete for binding to human p-selectin. Linear compounds were tested in the presence of DTT to prevent aggregate formation. After washing 6 times with assay buffer, the wells were incubated with 100 μl TMB/H2O2 for 15 min at RT. The reaction was stopped with 1 M H2SO4 and the absorbance read at 450 nm. From the results, the affinity constants were calculated: […]
A general note: An ELISA detects its analyte on a solid surface through an enzyme-linked reagent.

Assay [4] has as its target T2, chimeric human p-selectin (human, UniProt P16109 42-321).
T2 construct: also called human P-selectin-IgG
T2 sequence (looked up): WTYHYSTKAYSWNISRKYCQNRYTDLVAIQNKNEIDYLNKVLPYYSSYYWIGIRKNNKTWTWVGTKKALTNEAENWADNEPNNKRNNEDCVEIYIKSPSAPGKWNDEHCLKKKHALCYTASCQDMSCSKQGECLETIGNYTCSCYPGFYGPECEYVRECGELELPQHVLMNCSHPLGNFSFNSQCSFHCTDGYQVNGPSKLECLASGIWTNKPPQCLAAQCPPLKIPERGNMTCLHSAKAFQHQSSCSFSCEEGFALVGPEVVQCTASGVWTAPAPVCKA
Description: affinity to human P-selectin, prepared and tested as in example 1 (competition ELISA against TM11-strepPO complex); column head 'Affinity [µM]'. As for the experimental part: (§1) Linear compounds were tested in the presence of DTT to prevent aggregate formation. After washing 6 times with assay buffer, the wells were incubated with 100 μl TMB/H_2O_2 for 15 min at RT. The reaction was stopped with 1 M H_2SO_4 and the absorbance read at 450 nm. From the results, the affinity constants were calculated: […]

Assay [5] concerns the target T2, chimeric human p-selectin. As to the kind of experiment: competition ELISA; coated chimeric human P-selectin, competitor 2.5 nM TM11-strepPO complex; column head 'Affinity'. The method, then: as §1

Positions of bridges follow the written chain, without caps; N, C: chain ends. Residues, ends and D or L forms follow the SMILES beside them. No end group written: not given here. *: point of attachment. Biotin = O=C1N[C@H]2[C@H](CS[C@H]2CCCCC(=O)*)N1; Ahx = NCCCCCC(=O)O

Take D V E W V D V S (DVEWVDVS) [A19]: the “aggregation reduced (second phase of platelet aggregation)” value in assay [1] is on record as “about 45%”. Further, in assay [2], the “inhibition of the binding of sulfatides to P-selectin” value (“inhibition … to P-selectin” for short) is on record as “significantly inhibited”. Regarding `CC(C)C[C@H](NC(=O)[C@H](CO)NC(=O)[C@H](CO)NC(=O)[C@@H](NC(=O)[C@H](CC(=O)O)NC(=O)[C@@H](NC(=O)[C@H](Cc1c[nH]c2ccccc12)NC(=O)[C@H](CCC(=O)O)NC(=O)[C@@H](NC(=O)[C@H](CC(=O)O)NC(=O)[C@H](CS)NC(=O)CCCCCNC(=O)CCCC[C@@H]1SC[C@@H]2NC(=O)N[C@@H]21)C(C)C)C(C)C)C(C)C)C(=O)N[C@@H](CCC(=O)O)C(=O)N[C@@H](Cc1c[nH]c2ccccc12)C(=O)N[C@@H](CC(=O)O)C(=O)N[C@@H](CC(C)C)C(=O)N1CCC[C@H]1C(=O)N[C@@H](CS)C(=O)O` [Biotin-TM11] ({Biotin-Ahx}-CDVEWVDVSSLEWDLPC-OH), in assay [3], the IC50 turned out to be 2 µM. On the same count and under the same terms, in the case of `CC(C)C[C@@H]1NC(=O)[C@H](CO)NC(=O)[C@H](CO)NC(=O)[C@H](C(C)C)NC(=O)[C@H](CC(=O)O)NC(=O)[C@H](C(C)C)NC(=O)[C@H](Cc2c[nH]c3ccccc23)NC(=O)[C@H](CCC(=O)O)NC(=O)[C@H](C(C)C)NC(=O)[C@H](CC(=O)O)NC(=O)[C@@H](NC(=O)CCCCCNC(=O)CCCC[C@@H]2SC[C@@H]3NC(=O)N[C@@H]32)CSSC[C@@H](C(=O)O)NC(=O)[C@@H]2CCCN2C(=O)[C@H](CC(C)C)NC(=O)[C@H](CC(=O)O)NC(=O)[C@H](Cc2c[nH]c3ccccc23)NC(=O)[C@H](CCC(=O)O)NC1=O` [Biotin-TM11(cyclic)] ({Biotin-Ahx}-CDVEWVDVSSLEWDLPC-OH; disulfide 1-17) it was 2 µM. In the case of C D V E W V D V S C (CDVEWVDVSC) [A17], the “aggregation reduced (second phase of platelet aggregation)” value in assay [1] is roughly 25%. The “inhibition … to P-selectin” value in assay [2] is listed as “significantly inhibited”. Regarding `CC(C)[C@H](NC(=O)[C@H](CC(=O)O)NC(=O)[C@@H](NC(=O)[C@H](Cc1c[nH]c2ccccc12)NC(=O)[C@H](CCC(=O)O)NC(=O)[C@@H](NC(=O)[C@H](CC(=O)O)NC(=O)CCCCCNC(=O)CCCC[C@@H]1SC[C@@H]2NC(=O)N[C@@H]21)C(C)C)C(C)C)C(=O)N[C@@H](CO)C(=O)O` [Biotin-A19] ({Biotin-Ahx}-DVEWVDVS-OH), in assay [3], the IC50 amounted to 12 µM. Take “DVEAVDVS [D V E A V D V S, reference compound]”: the “inhibition … to P-selectin” value in assay [2] is listed as “did not”.

For EWVDV [core motif peptide], the “inhibition … to P-selectin” value in assay [2] is “did not”. With D V E W V D V A (DVEWVDVA) [A27], the “inhibition … to P-selectin” value in assay [2] was “significantly inhibited”. For {Biotin-Ahx}-DVEAVDVS (Comparative compound), the IC50 in assay [4] turned out to be 400000 µM. On the same count and under the same terms, the same measure for {Biotin-Ahx}-DVEWADVS (Comparative compound): 1400 µM; for {Biotin-Ahx}-DVEWVAVS (Comparative compound): 21000 µM. Still for that read-out and setting: in the case of {Biotin-Ahx}-DVEWVDAS (Comparative compound) it was 13000 µM.

B1: Biotin-TM1 (peptide)
peptide: {Biotin-Ahx}-CPEFVDVEGDPGALLAC
modifications: cysteine pairing not given here
notes: Linear compounds were tested in the presence of DTT
For B1, the IC50 in assay [5] turned out to be 82 µM. Same read-out and setting: in the case of {Biotin-Ahx}-CDVEWVDVSSLEWDLPC (disulfide 1-17) [Biotin-TM11(cyclic)] it was 2 µM.

B2: Biotin-TM16 (peptide)
peptide: {Biotin-Ahx}-CPDWVDVFKLVEGVMLC
modifications: cysteine pairing not given here
notes: as for B1
Consider B2, for which the IC50 in assay [5] came out at 12 µM. Turning to {Biotin-Ahx}-EWVKVA (Comparative compound), in assay [4], the IC50 was 13000 µM.

B3: Biotin-TM2 (peptide)
peptide: {Biotin-Ahx}-CGWVDVIASGDTATLAC
modifications: cysteine pairing not given here
notes: as for B1
Regarding B3, the IC50 in assay [5] was 49 µM. On the same count and under the same terms, the same measure for {Biotin-Ahx}-VGLDPRDWVDVSDYA [Biotin-SH31]: 19 µM.

B4: Biotin-A17 (peptide)
peptide: {Biotin-Ahx}-CDVEWVDVSC
modifications: cysteine pairing not given here
notes: Only TM11 is said to have been prepared in a cyclized form as well
Turning to B4, in assay [5], the IC50 amounted to 0.1 µM.
